Substrate: N[C@@H](CC(=O)O)C(=O)O
Test: purified protein
Conditions: 37 °C, 5 min, PBS pH 7.0 (pH of the activity assay), pyruvoyl-dependent
[1] = variant N3, I126* = C-terminal deletion from residue 126
[2] = variant Y1, I126* = C-terminal deletion from residue 126

B1: BsADC (L-aspartate-alpha-decarboxylase, panD-wt) (Bacillus subtilis subsp. subtilis str. 168) (protein)
chain 1: MYRTMMSGKLHRATVTEANLNYVG
chain 2: SITIDEDLIDAVGMLPNEKVQIVNNNNGARLETYIIPGKRGSGVICLNGAAARLVQEGDKVIIISYKMMSDQEAASHEPKVAVLNDQNKIEQMLGNEPARTIL
Km: 3.69 ± 0.33 mM | kcat: 4.25 s⁻¹ | kcat/Km: 1150 M⁻¹ s⁻¹

B2: BsADC (L-aspartate-alpha-decarboxylase, panD-wt) (Bacillus subtilis subsp. subtilis str. 168; A99E/DEL126-127/I88M/K113R/K63N/S7N) (protein)
chain 1: MYRTMMNGKLHRATVTEANLNYVG
chain 2: SITIDEDLIDAVGMLPNEKVQIVNNNNGARLETYIIPGNRGSGVICLNGAAARLVQEGDKVIIMSYKMMSDQEAESHEPKVAVLNDQNRIEQMLGNEPART
Km [1]: 3.22 ± 0.15 mM | kcat [1]: 8.29 s⁻¹ | kcat/Km [1]: 2570 M⁻¹ s⁻¹

B3: BsADC (L-aspartate-alpha-decarboxylase, panD-wt) (Bacillus subtilis subsp. subtilis str. 168; A99E/DEL126-127/I88M/K113R/K63N/S7Y) (protein)
chain 1: MYRTMMYGKLHRATVTEANLNYVG
chain 2: B2 chain 2
Km [2]: 3.82 ± 0.29 mM | kcat [2]: 7.26 s⁻¹ | kcat/Km [2]: 1900 M⁻¹ s⁻¹

— publication PMC11808261
